T1: monomeric ARG2 (Homo sapiens, UniProt P78540, E275Q)
T1 construct: human ARG2 (aa23-354); His10 (C); made in house; host or cells: E. coli
T1 sequence (P78540 23-354 E275Q): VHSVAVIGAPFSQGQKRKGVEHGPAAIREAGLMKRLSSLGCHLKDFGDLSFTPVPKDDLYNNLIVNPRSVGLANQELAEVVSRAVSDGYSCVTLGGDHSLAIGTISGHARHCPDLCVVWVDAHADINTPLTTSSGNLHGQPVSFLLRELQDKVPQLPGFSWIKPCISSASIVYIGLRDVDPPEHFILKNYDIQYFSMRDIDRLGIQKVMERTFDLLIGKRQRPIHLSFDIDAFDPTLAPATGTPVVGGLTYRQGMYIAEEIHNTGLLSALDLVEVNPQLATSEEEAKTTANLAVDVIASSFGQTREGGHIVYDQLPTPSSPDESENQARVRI

T2: ARG2 (Homo sapiens, UniProt P78540)
T2 sequence (P78540 23-354): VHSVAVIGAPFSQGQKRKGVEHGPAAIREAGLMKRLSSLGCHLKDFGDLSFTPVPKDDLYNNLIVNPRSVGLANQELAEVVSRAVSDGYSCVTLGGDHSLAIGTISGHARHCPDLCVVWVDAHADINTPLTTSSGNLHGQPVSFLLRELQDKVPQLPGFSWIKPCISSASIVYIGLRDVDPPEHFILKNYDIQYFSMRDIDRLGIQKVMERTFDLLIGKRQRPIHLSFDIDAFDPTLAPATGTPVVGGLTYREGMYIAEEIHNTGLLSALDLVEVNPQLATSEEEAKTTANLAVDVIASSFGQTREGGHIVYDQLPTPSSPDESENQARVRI


Key:
monomeric ARG2 = target: T1, monomeric ARG2; experiment: Human monomeric ARG2 enzyme inhibition assay; type: biochemical; conditions: purified recombinant human IgG1, FIG. 5
Experimental: ARG2 specific recombinant IgG1 were screened for their ability to inhibit enzymatic activity of monomeric ARG2. In this assay, the ability of ARG2 specific recombinant IgG1 to inhibit the enzymatic activity of monomeric ARG2 was determined by measuring the production of urea, the product of L-arginine turnover by monomeric ARG2.
IC50 values were determined by testing a dilution series of the ARG2 specific recombinant IgG1, prepared in TBS.
10 μl of ARG2 specific recombinant IgG1 (dilution series) were added to a Greiner Bio-One® 384 well assay plate (Greiner Bio-one, UK; cat: 781901). […]
Urea was detected by the simultaneous addition of equal volumes of O-Phthaldialdehyde (1.5 mM O-Phthaldialdehyde, 7% H2SO4, 0.03% Brij L23) and N-(1-Napthyl)ethylenediamine (1.66 mM N-(1-Napthyl)ethylenediamine, 81 mM Boric acid, 21% H2SO4, 0.03% Brij L23) followed by an 18 minute incubation at room temperature before the colorimetric product was quantified on the Pherastar by measuring absorbance at 505 nm.
ARG2 specific recombinant IgG1 were tested alongside N-Hydroxyl-L-Arginine (a small molecule competitive inhibitor of ARG2) as a positive control and NIP228 (irrelevant isotype control antibody) as a negative control. Data points were plotted and IC50 values determined using a four parameter fit in GraphPad Prism (FIG. 5).

ARG2 = target: T2, ARG2; experiment: T cell proliferation assay (BrdU, 96 hours) with exogenous ARG2, improved variant IgGs; type: cell-based; set-up: human ARG2 (aa23-354); His10 (C); made in house; host or cells: E. coli BL21 (DE3); conditions: In Presence of rhARG2; hIgG1; top conc 2 μM; n=2
Experimental: This assay served to provide evidence of improved functional efficacy for each affinity-matured antibody in comparison to the parent IgG, C0020187 (FIG. 12).
Lead optimisation clones were tested to an endpoint treatment time of 96 hours and the BrdU Cell Proliferation Kit (Roche, France; Cat: 11647229001) was used according to the manufacturer's instructions. R347 was used as the irrelevant control. All clones tested n=2.
Leukocyte cones underwent Ficoll Plaque (GE, Sweden; Cat: 17-1440-02) gradient separation, PBMC's were extracted and pan T cell population isolated by negative selection using the Human T Cell Enrichment Kit (Stemcell Technologies, France; Cat: 19051) according to the manufacturer's instructions.
40000 cells/well were seeded in complete growth media (RMPI 1640, 5% Human Serum Albumin) into a 96 well clear TC treated microplate (Greiner-Bio One, Germany; Cat: 655180). T cells were activated by the addition of ImmunoCult CD3/CD28 (Stemcell Technologies, France; Cat: 10971) at a dilution of 1:40 directly into wells and the plate incubated 37° C., 5% CO2 for 45 minutes. […]
Calculated data was expressed as % of control (Equation 3) and graphical plots were constructed using a four parameter fit and EC50's determined using model 205 in XLFit (IDBS, UK). […]

Molecule	inhibition of the activity of human monomeric ARG2 (monomeric ARG2)	EC50 (ARG2)	Maximum % Proliferation (ARG2)
C0020065: anti-ARG2 antibody, alternate lead isolation clone, VH SEQ ID NO: 2, VL SEQ ID NO: 7 (antibody, listed as Homo sapiens, V domains shown, C0020065) VH: GVNLRESGGGVVQPGRSLRLSCAASGFTFSSYAMHWVRQAPGKGLEWVAVISYDGSNKYYVDSVKGRFTISRDNSKNTLYLQMNSLRAEDTAVYYCARDSSQLWFDYWGRGTLVTVSS VL: QSVVTQPPSVSGAPGQRVTISCTGSSSNIGTGYDVHWYQQLPGTAPKLLIYGNSNRPSGVPDRFSGSKSGTSASLAITGLQAEDEADYYCQSYDSSLSGSVVFGGGTQLTVL	inhibited	–	–
C0021158: anti-ARG2 antibody, second generation lead, VH SEQ ID NO: 272, VL SEQ ID NO: 277 (antibody, listed as Homo sapiens, V domains shown, C0021158) VH: EVQLLESGGGLVQPGGSLRLSCAASGFTFRYEVAAWVRQAPGKGLEWVSAISGPIPKGYYADSVKGRFTISRDNSKNTLYLQMNSLRAEDTAVYYCARLRADLGLYMDLWGRGTLVTVPS VL: QSVLTQPPSVSAAPGQKVTISCSGSSSNIGNHYVSWYQQLPGTAPKLLIYDNSERTAGVPDRFSGSKSGTSATLGITGLQTGDEADYYCGTWDELTSNLVFGGGTKLTVL	–	157 nM	90%
